Laboratory results from US20170342349A1, “STABILIZED ENZYME COMPOSITIONS” (NOVOZYMES A/S, priority 2014, published 2017).
Residue numbers refer to the chain shown, from its start. In names and notes the source's numbering stands. Several values for one entry are separate records, joined by “and”; a condition that tells them apart may be missing. Identical values can stand only once.

B1: G182A: protease variant of SEQ ID NO 3 (protein, listed as Bacillus sp.)
chain: AVPSTQTPWGIKSIYNDQSITKTTGGSGIKVAVLDTGVYTSHLDLAGSAEQCKDFTQSNPLVDGSCTDRQGHGTHVAGTVLAHGGSNGQGVYGVAPQAKLWAYKVLGDNGSGYSDDIAAAIRHVADEASRTGSKVVINMSLGSSAKDSLIASAVDYAYGKGVLIVAAAGNSGSGSNTIGFPAGLVNAVAVAALENVQQNGTYRVADFSSRGNPATAGDYIIQERDIEVSAPGASVESTWYTGGYNTISGTSMATPHVAGLAAKIWSANTSLSHSQLRTELQNRAKVYDIKGGIGAGTGDDYASGFGYPRVK
B2: A145E: protease variant of SEQ ID NO 3 (protein, listed as Bacillus sp.)
chain: B1 chain with A145E, A182G
B3: S173P + S175P + I178Y + F180Y: protease variant of SEQ ID NO 3 (protein, listed as Bacillus sp.)
chain: B1 chain with S173P, S175P, I178Y, F180Y, A182G
B4: S173P + S175P + F180Y + L184F: protease variant of SEQ ID NO 3 (protein, listed as Bacillus sp.)
chain: B1 chain with S173P, S175P, F180Y, A182G, L184F
B5: K146R + S173P + S175P + F180Y: protease variant of SEQ ID NO 3 (protein, listed as Bacillus sp.)
chain: B1 chain with K146R, S173P, S175P, F180Y, A182G
B6: S173P + S175P + F180Y + L184W: protease variant of SEQ ID NO 3 (protein, listed as Bacillus sp.)
chain: B1 chain with S173P, S175P, F180Y, A182G, L184W
B7: K146N + S173P + S175P + F180Y: protease variant of SEQ ID NO 3 (protein, listed as Bacillus sp.)
chain: B1 chain with K146N, S173P, S175P, F180Y, A182G
B8: S173P + S175P + F180Y + L184D: protease variant of SEQ ID NO 3 (protein, listed as Bacillus sp.)
chain: B1 chain with S173P, S175P, F180Y, A182G, L184D
B9: S173P + S175P + I178P + F180Y: protease variant of SEQ ID NO 3 (protein, listed as Bacillus sp.)
chain: B1 chain with S173P, S175P, I178P, F180Y, A182G
B10: K146T + S173P + S175P + F180Y: protease variant of SEQ ID NO 3 (protein, listed as Bacillus sp.)
chain: B1 chain with K146T, S173P, S175P, F180Y, A182G
B11: Q70A + S173P + S175P + F180Y: protease variant of SEQ ID NO 3 (protein, listed as Bacillus sp.)
chain: B1 chain with Q70A, S173P, S175P, F180Y, A182G
B12: S173P + S175P + I178F + F180Y: protease variant of SEQ ID NO 3 (protein, listed as Bacillus sp.)
chain: B1 chain with S173P, S175P, I178F, F180Y, A182G
B13: S114Q + S173P + S175P + F180Y: protease variant of SEQ ID NO 3 (protein, listed as Bacillus sp.)
chain: B1 chain with S114Q, S173P, S175P, F180Y, A182G
B14: K146S + S173P + S175P + F180Y: protease variant of SEQ ID NO 3 (protein, listed as Bacillus sp.)
chain: B1 chain with K146S, S173P, S175P, F180Y, A182G
B15: K146W + S173P + S175P + F180Y: protease variant of SEQ ID NO 3 (protein, listed as Bacillus sp.)
chain: B1 chain with K146W, S173P, S175P, F180Y, A182G
B16: S111I + S173P + S175P + F180Y: protease variant of SEQ ID NO 3 (protein, listed as Bacillus sp.)
chain: B1 chain with S111I, S173P, S175P, F180Y, A182G
B17: S114F + S173P + S175P + F180Y: protease variant of SEQ ID NO 3 (protein, listed as Bacillus sp.)
chain: B1 chain with S114F, S173P, S175P, F180Y, A182G
B18: K146A + S173P + S175P + F180Y: protease variant of SEQ ID NO 3 (protein, listed as Bacillus sp.)
chain: B1 chain with K146A, S173P, S175P, F180Y, A182G
B19: S173P + S175P + F180Y + L184Y: protease variant of SEQ ID NO 3 (protein, listed as Bacillus sp.)
chain: B1 chain with S173P, S175P, F180Y, A182G, L184Y
B20: L184Y: protease variant of SEQ ID NO 3 (protein, listed as Bacillus sp.)
chain: B1 chain with A182G, L184Y
B21: S173P + S175P + F180Y + L184H: protease variant of SEQ ID NO 3 (protein, listed as Bacillus sp.)
chain: B1 chain with S173P, S175P, F180Y, A182G, L184H
B22: S173P + S175P + F180Y + G182A: protease variant of SEQ ID NO 3 (protein, listed as Bacillus sp.)
chain: B1 chain with S173P, S175P, F180Y
B23: S111D: protease variant of SEQ ID NO 3 (protein, listed as Bacillus sp.)
chain: B1 chain with S111D, A182G
B24: S144R: protease variant of SEQ ID NO 3 (protein, listed as Bacillus sp.)
chain: B1 chain with S144R, A182G
B25: S114A + S173P + S175P + F180Y: protease variant of SEQ ID NO 3 (protein, listed as Bacillus sp.)
chain: B1 chain with S114A, S173P, S175P, F180Y, A182G
B26: S111E: protease variant of SEQ ID NO 3 (protein, listed as Bacillus sp.)
chain: B1 chain with S111E, A182G
B27: K146F + S173P + S175P + F180Y: protease variant of SEQ ID NO 3 (protein, listed as Bacillus sp.)
chain: B1 chain with K146F, S173P, S175P, F180Y, A182G
B28: S173P + S175P + F180Y + G182S: protease variant of SEQ ID NO 3 (protein, listed as Bacillus sp.)
chain: B1 chain with S173P, S175P, F180Y, A182S

Key:
[1] = Inhibitor binding assay of SEQ ID NO 3 variants, Inhibitor 1, in Model B detergent; type: biochemical; conditions: relative Ki, IF>1.0 = lower Ki
From the text: (§1) Where E is the protease, I is the inhibitor and EI is the protease-inhibitor complex. […] The concentration of enzyme-inhibitor in the detergent solution is then given by:
(§2) where Etot is the total protease concentration ([Etot]=[E]+[EI]), Itot is the total inhibitor concentration ([Itot]=[I]+[EI]), and Ki is the equilibrium binding constant for the reaction. The measured slopes V are given by:
(§3) where V0 is the slope without inhibitor added. To calculate apparent binding constant Ki least square fitting of measured slopes at various inhibitor concentrations to this equation is performed with Ki and V0 as variables.
(§4) Purified protease variants are pre-diluted to approximately 0.2 mg/ml in dilution buffer. The experimental conditions are described in Table 5. 40 μl diluted protease is then mixed with 40 μl inhibitor solution Inhibitor 1: (Cbz-Gly-Ala-NHCH(CH2C6H4pOH)C(OH)(SO3Na)—H, wherein Cbz is benzyloxycarbonyl) or 40 μl Inhibitor 2: (4-FPBA) solution in the well of a 96 well microtiter plate (Nunc F 96-MTP). […] After 10 min mixing of protease and inhibitor at room temperature, 30 μl of the mixture is transferred to a microtiter plate (Nunc U96 PP 0.5 ml) with 270 μl Model B detergent (described in Table 1) in the wells resulting in inhibitor 1 concentrations of 0-30 μM and inhibitor 2 concentrations of 0-6000 μM. Protease, inhibitor and detergent is mixed for 1 hour using magnetic bars for 1 hour at room temperature to reach equilibrium. Then 20 μl is transferred to a microtiter plate (Nunc F 96-MTP). 100 μl substrate solution is added and after 5 sec mixing absorbance at 405 nm is measured every 20 sec for 5 min on a SpectraMax Plus reader. Slope from linear regression of initial increase in absorbance at 405 nm is used for calculation of apparent binding constants. Ki values were calculated according to the “Calculation of Ki” method described in “Materials and Methods”
(§5) Having the Ki for each variant, it is possible to calculate the effect of a single mutation, if data are available for at least two variants that differ only by that mutation. In this case, the relative Ki for the mutation (Improvement Factor, or IF) is calculated:
(§6) A lower Ki is desirable, as a satisfactory inhibition can be obtained at a lower inhibitor concentration, so beneficial mutations have an IF>1.0

[2] = Inhibitor binding assay of SEQ ID NO 3 variants, Inhibitor 2, in Model B detergent; type: biochemical; conditions: in Model B relative to SEQ ID NO 3; relative Ki, IF>1.0 = lower Ki
From the text: as §1, §2, §3, §4, §5, §6

[3] = in Model B relative to SEQ ID NO 3
[4] = in Model B relative to SEQ ID NO 3 comprising S173P + S175P + F180Y

Row | Molecule | inhibitor 1 binding constant improvement factors (IF) [1, 4] | other results
1 | B1 |  | inhibitor 1 binding constant improvement factors (IF) [1, 3]: 1.86
2 | B2 |  | inhibitor 2 binding constant improvement factors (IF) [2]: 1.03
3 | B3 | 2.15 | 
4 | B4 | 4.28 and 3.02 | 
5 | B5 | 1.31 | 
6 | B6 | 2.23 | 
7 | B7 | 1.36 | 
8 | B8 | 3.28 | 
9 | B9 | 2.22 | 
10 | B10 | 15.91 | 
11 | B11 | 4.13 | 
12 | B12 | 2.34 and 1.83 | 
13 | B13 | 2.03 | 
14 | B14 | 1.13 | 
15 | B15 | 5.47 | 
16 | B16 | 1.12 | 
17 | B17 | 1.41 | 
18 | B18 | 3.72 | 
19 | B19 | 3.91 | 
20 | B20 |  | inhibitor 1 binding constant improvement factors (IF) [1, 3]: 4.47
21 | B21 | 2.50 | 
22 | B22 | 2.49 and 2.01 | 
23 | B23 |  | inhibitor 2 binding constant improvement factors (IF) [2]: 1.53
24 | B24 |  | inhibitor 2 binding constant improvement factors (IF) [2]: 2.03
25 | B25 | 3.33 | 
26 | B26 |  | inhibitor 2 binding constant improvement factors (IF) [2]: 1.23
27 | B27 | 5.17 | 
28 | B28 | 1.69 | 
